Results published in publication doi:10.1101/411223 (bioRxiv, 2018).

T1: Kap114p (Δ899-956) (S. cerevisiae, UniProt P53067 1-1004, Δ899-956)
T1 sequence (looked up): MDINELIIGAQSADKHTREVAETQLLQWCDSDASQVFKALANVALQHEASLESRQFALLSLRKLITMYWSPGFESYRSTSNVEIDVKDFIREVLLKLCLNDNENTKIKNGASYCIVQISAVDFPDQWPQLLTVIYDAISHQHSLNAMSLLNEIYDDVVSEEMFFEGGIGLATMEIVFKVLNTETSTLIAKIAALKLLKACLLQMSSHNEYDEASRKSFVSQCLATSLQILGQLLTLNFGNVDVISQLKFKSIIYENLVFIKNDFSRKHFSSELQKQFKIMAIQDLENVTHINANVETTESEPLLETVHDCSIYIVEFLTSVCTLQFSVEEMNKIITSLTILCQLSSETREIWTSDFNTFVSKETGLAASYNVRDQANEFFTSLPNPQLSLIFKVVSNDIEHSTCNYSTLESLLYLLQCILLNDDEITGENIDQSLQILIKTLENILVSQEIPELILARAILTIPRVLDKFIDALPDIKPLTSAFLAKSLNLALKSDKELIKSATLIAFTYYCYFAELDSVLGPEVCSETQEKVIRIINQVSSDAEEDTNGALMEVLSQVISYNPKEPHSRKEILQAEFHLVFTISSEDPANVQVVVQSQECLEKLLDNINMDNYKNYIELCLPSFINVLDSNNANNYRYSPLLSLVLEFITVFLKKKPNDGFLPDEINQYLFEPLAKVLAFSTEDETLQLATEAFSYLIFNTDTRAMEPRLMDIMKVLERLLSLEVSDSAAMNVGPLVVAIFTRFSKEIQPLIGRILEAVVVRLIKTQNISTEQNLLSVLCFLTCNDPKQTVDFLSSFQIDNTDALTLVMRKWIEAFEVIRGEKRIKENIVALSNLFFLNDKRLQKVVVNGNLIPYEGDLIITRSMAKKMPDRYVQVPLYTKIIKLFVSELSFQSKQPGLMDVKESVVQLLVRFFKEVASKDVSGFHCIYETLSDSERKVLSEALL

T2: Kap114p (Δ347-371) (S. cerevisiae, UniProt P53067 1-1004, Δ347-371)
T2 sequence (looked up): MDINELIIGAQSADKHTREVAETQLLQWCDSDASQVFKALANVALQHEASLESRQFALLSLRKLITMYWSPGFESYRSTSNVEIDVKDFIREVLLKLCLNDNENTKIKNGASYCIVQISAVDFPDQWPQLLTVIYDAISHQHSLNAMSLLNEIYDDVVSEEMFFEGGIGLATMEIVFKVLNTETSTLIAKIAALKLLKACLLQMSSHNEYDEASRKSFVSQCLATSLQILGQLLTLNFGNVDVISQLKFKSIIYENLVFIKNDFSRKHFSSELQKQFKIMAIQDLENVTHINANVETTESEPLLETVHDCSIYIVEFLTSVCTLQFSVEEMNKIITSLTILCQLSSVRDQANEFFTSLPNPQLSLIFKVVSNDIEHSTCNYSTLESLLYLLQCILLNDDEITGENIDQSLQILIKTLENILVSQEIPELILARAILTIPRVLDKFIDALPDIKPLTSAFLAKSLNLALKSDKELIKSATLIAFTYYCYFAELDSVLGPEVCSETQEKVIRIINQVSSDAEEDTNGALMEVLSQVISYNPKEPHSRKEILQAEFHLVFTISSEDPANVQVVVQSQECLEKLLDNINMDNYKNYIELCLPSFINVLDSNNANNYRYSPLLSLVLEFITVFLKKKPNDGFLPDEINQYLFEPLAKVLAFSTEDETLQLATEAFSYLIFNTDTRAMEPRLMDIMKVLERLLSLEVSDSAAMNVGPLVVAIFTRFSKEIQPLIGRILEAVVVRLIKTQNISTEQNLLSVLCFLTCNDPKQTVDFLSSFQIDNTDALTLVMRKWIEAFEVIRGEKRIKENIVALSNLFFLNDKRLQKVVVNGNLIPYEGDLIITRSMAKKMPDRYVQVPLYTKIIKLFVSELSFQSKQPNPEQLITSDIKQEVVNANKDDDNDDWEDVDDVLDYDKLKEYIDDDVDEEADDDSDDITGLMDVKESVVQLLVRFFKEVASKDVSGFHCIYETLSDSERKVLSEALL


Assays:
Kap114p (Δ899-956) = molecular target: T1, Kap114p (Δ899-956); assay: pull-down
Kap114p (Δ347-371) = molecular target: T2, Kap114p (Δ347-371); assay: pull-down
[1] = molecular target: His-tagged RanQ69L, P62826; assay: SEC; details: remark: other sources report otherwise

Binder | binding result (Kap114p (Δ899-956)) | binding result (Kap114p (Δ347-371)) | stoichiometry N [1]
GST-fused yTBP (61-240) (domain or fragment, S. cerevisiae, UniProt P13393 61-240, looked up) SGIVPTLQNIVATVTLGCRLDLKTVALHARNAEYNPKRFAAVIMRIREPKTTALIFASGKMVVTGAKSEDDSKLASRKYARIIQKIGFAAKFTDFKIQNIVGSCDVKFPIRLEGLAFSHGTFSSYEPELFPGLIYRMVKPKIVLLIFVSGKIVLTGAKQREEIYQAFEAIYPVLSEFRKM | binds | binds | 
Kap114p, P53067 1-1004 (natural protein) MDINELIIGAQSADKHTREVAETQLLQWCDSDASQVFKALANVALQHEASLESRQFALLSLRKLITMYWSPGFESYRSTSNVEIDVKDFIREVLLKLCLNDNENTKIKNGASYCIVQISAVDFPDQWPQLLTVIYDAISHQHSLNAMSLLNEIYDDVVSEEMFFEGGIGLATMEIVFKVLNTETSTLIAKIAALKLLKACLLQMSSHNEYDEASRKSFVSQCLATSLQILGQLLTLNFGNVDVISQLKFKSIIYENLVFIKNDFSRKHFSSELQKQFKIMAIQDLENVTHINANVETTESEPLLETVHDCSIYIVEFLTSVCTLQFSVEEMNKIITSLTILCQLSSETREIWTSDFNTFVSKETGLAASYNVRDQANEFFTSLPNPQLSLIFKVVSNDIEHSTCNYSTLESLLYLLQCILLNDDEITGENIDQSLQILIKTLENILVSQEIPELILARAILTIPRVLDKFIDALPDIKPLTSAFLAKSLNLALKSDKELIKSATLIAFTYYCYFAELDSVLGPEVCSETQEKVIRIINQVSSDAEEDTNGALMEVLSQVISYNPKEPHSRKEILQAEFHLVFTISSEDPANVQVVVQSQECLEKLLDNINMDNYKNYIELCLPSFINVLDSNNANNYRYSPLLSLVLEFITVFLKKKPNDGFLPDEINQYLFEPLAKVLAFSTEDETLQLATEAFSYLIFNTDTRAMEPRLMDIMKVLERLLSLEVSDSAAMNVGPLVVAIFTRFSKEIQPLIGRILEAVVVRLIKTQNISTEQNLLSVLCFLTCNDPKQTVDFLSSFQIDNTDALTLVMRKWIEAFEVIRGEKRIKENIVALSNLFFLNDKRLQKVVVNGNLIPYEGDLIITRSMAKKMPDRYVQVPLYTKIIKLFVSELSFQSKQPNPEQLITSDIKQEVVNANKDDDNDDWEDVDDVLDYDKLKEYIDDDVDEEADDDSDDITGLMDVKESVVQLLVRFFKEVASKDVSGFHCIYETLSDSERKVLSEALL |  |  | 1
